Data reported in US20100041597A1, “PEPTIDES TARGETED TO PROTEIN KINASE C ISOFORMS AND USES THEREOF” (priority 2005, published 2010).
Entries after “also recorded” stand apart in the source; their conditions may differ.

Experiments:
PKC-α = PKC-α (Homo sapiens, UniProt P17252); assay: Competitive binding assay using cell extracts (Western blot); parameters: key to Affinity for PKC isoform α: —: no detectable affinity; Low to very low affinity at 10X or 20X or both PRE concentrations in at least one cell line in the cell extract assay; Low affinity in purified isoform assay.; Moderate affinity at 10X or 20X or both PRE concentrations in at least one cell line in the cell extract assay.; High affinity at 10X or 20X or both PRE concentrations in at least one cell line in the cell extract assay; High affinity in purified isoform assay; conditions: for Affinity for PKC isoform α: Cell extract, PRE at 10X, 20X antibody concentration, Table 20
Description: Binding efficiency and specificity of the peptides PRE 2, 3, 4, 5, 6, 7, 8, 9, 10, 11, 12 and 13 (see Table 3) was also tested using cytoplasmic extracts from different cell lines expressing appropriate PKC isoforms as described for Example 1. Briefly, the protein cytoplasmic extracts were separated by electrophoresis and transferred onto nitrocellulose membranes by standard Western blotting procedures. The bands on the Western blots were detected with matching primary antibodies and alkaline phosphatase conjugated secondary antibody. The bands were then scanned and the relative density measurements obtained.
This procedure to assess the binding characteristics of the PREs is based on competition binding of the PRE with the primary anti-isoform PKC specific antibodies. The lower the measured band density, the greater the binding of the PRE to the PKC isoform. The PREs were added at 10 and 20 times (10×, 20×) the primary antibody concentration, according to classical competition between antigenic peptide and primary antibody. The following cell lines (obtained from the ATCC) were used: H661—NCI human lung carcinoma NSCLC; MDAMB231—human highly invasive breast cancer cell line from pleural effusion; LS180—human colon adenocarcinoma; LnCAP—human prostate adenocarcinoma; CCD16Lu—human lung fibroblasts; Du145—human prostate carcinoma brain metastasis, and T24—human bladder carcinoma.
In these cases, the 20× band density figures relative to control and 10× values were reliable.

PKC-δ = PKC-δ (Homo sapiens, UniProt Q05655); assay: ELISA-based competitive binding assay with purified PKC isoform; parameters: key to Affinity for PKC isoform δ: —: no detectable affinity; Low to very low affinity at 10X or 20X or both PRE concentrations in at least one cell line in the cell extract assay; Low affinity in purified isoform assay.; Moderate affinity at 10X or 20X or both PRE concentrations in at least one cell line in the cell extract assay.; High affinity at 10X or 20X or both PRE concentrations in at least one cell line in the cell extract assay; High affinity in purified isoform assay; conditions: for inhibition at 50 µM / inhibition at 100 µM / inhibition at 200 µM / calculated binding capacity (100-% n) after subtraction of the DMSO apparent binding capacity: purified PKC-δ, may be overestimated (longer colour development); for inhibition at 50 µM / inhibition at 100 µM / inhibition at 200 µM: read-out: calculated binding capacity (100-% n) after subtraction of the DMSO apparent binding capacity; for Affinity for PKC isoform δ: Purified isoform, Table 20; for targeting of / affinity for PKC-δ: purified isoform, Tables 14-19
Description: Peptides PRE 1, 2, 3, 4, 5, 6, 7, 8, 9, 10, 11, 12 and 13 (see Table 3) were tested for their ability to interfere with binding of PKC isoform-specific antibodies to their target PKC isoforms using a competitive binding assay and purified PKC isoforms.
Procedure: Competitive binding was assessed using a 96 well plate ELISA-based assay as described below.
Greiner 96 well ELISA plates were coated with the appropriate PKC isoform diluted in PBSN (PBS with Calcium/Magnesium+0.05% Sodium azide w/w). 50 μL/well at 250 ng/mL was used. Control wells contained PBSN only. Plates were incubated overnight at 4° C.
The plates were washed 3 times with 200 μL of dH2O per well, then 100 μL of blocking solution was added per well and the plate incubated for 1 h at 37° C. The washing steps with dH2O were repeated and 50 μL of the appropriate PRE solution (PRE stock solution [20 mM in DMSO] diluted in PBSN) was added and the plate incubated for 1 h at room temperature.
After incubation, 5 μL of 1.1:400 anti-PKC (isoform specific antibody) was added per well (to provide a final concentration of 1:4000). For PKC-epsilon, 1.1:800 dilution was used and for PKC-zeta a 1.1:100 dilution was used due to high and low binding affinity, respectively. The plates were then incubated 1 h at room temperature, followed by washing with dH2O as described above.
50 μL of 1:1000 dilution of Alkaline Phosphatase (AP) conjugated antibody (anti-rabbit for all except zeta, which was anti-goat) was then added and the plate incubated for 1 h at room temperature. Washing with dH2O was then repeated. Finally, 100 μL of pNPP solution in pNPP buffer (2 mM MgCl2, 100 mM Sodium bicarbonate in water, pH 9.8) was added to all wells and incubated for 8 minutes for α, βI, βII ε, and ζ, or for 15-20 mins for […] (until sufficient coloration is observed). The reaction was stopped by addition of Stop solution (2N NaOH) and the absorbance at 405 nm was read on a Galaxy Plate reader.
Controls were PKC without PRE; blank controls, and controls containing the final concentrations of DMSO used for solubilizing the PREs. The non-specific binding capacity related to DMSO was also measured.
The antibodies used were as follows: anti-PKC α (Cat. No. SC-208); anti-PKC βI (Cat. No. SC-209); anti-PKC βII (Cat. No. SC-210); anti-PKC δ (Cat. No. SC-213); anti-PKC ε (Cat. No. SC-214); anti-PKC ζ (Cat. No. SC-216-G) (all from Santa Cruz Biotechnology, Inc.). The AP-conjugated antibodies were obtained from Jackson Immuno Research Laboratories (West Grove, Pa.).
Calculations: The OD values measured at 405 nm represent the free PKC coated per well.
OD405 PKC alone−Blank OD405 of each sample=OD405 coated isoform
(OD405 of sample X/OD405 coated isoform)×100=% n that represents the percentage of X binding compared to control.
100-% n measures the relative binding capacity of X towards the tested isoform.
The apparent binding capacity of the DMSO samples was then subtracted from X binding capacity.
All measurements were made in triplicate and the values in the table represent the averaged calculated binding capacity values after subtraction of the DMSO apparent binding capacity (averaged from 12 values, respectively 10.80, 11.20 and 16.40 corresponding to the concentrations of DMSO used to dilute the […] at 200, 100 and 50 μM respectively). The results allow for quantitative comparison of the binding capacity of each PRE towards an individual isoform within each table, but not among isoforms due to differences in sensitivity of the specific antibodies toward the secondary antibody. This applies particularly to PKC-delta. As noted above, the colour development duration was increased 2-3 times and, as a result, the OD405 measurements may be overestimated for this isoform.

Sequence of PKC-δ (Q05655 whole entry, canonical isoform): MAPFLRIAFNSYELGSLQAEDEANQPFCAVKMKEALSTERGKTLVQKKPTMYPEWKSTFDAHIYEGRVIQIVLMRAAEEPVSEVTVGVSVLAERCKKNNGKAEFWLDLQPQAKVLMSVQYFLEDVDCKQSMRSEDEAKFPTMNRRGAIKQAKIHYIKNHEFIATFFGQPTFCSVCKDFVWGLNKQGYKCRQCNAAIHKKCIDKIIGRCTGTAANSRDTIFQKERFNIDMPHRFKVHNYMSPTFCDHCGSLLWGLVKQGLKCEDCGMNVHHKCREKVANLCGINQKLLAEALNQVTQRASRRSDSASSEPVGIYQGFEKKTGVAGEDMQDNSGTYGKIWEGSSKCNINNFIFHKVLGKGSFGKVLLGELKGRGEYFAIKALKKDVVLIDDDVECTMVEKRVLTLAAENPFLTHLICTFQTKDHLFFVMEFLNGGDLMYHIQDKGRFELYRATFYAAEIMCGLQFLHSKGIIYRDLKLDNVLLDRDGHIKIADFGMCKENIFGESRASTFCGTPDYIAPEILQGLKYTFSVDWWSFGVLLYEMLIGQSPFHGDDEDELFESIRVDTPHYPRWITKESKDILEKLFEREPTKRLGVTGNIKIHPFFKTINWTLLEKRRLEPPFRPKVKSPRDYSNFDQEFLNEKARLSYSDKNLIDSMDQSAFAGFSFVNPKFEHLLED

Substance | Affinity for PKC isoform α (PKC-α) | inhibition at 50 µM (PKC-δ; PRE 50 μM) [%] | inhibition at 100 µM (PKC-δ; PRE 100 μM) [%] | inhibition at 200 µM (PKC-δ; PRE 200 μM) [%] | Affinity for PKC isoform δ (PKC-δ) | targeting of / affinity for PKC-δ (PKC-δ) | calculated binding capacity (100-% n) after subtraction of the DMSO apparent binding capacity (PKC-δ; PRE 200 μM) | affinity for PKC-α (PKC-α; cell extracts) | calculated binding capacity (100-% n) after subtraction of the DMSO apparent binding capacity (PKC-δ; PRE 50 μM) | calculated binding capacity (100-% n) after subtraction of the DMSO apparent binding capacity (PKC-δ; PRE 100 μM)
Ac-AKGIQEVKGGDAQNLIGISI-NH2 [PRE 3] | H | 48.3 | 56 | 57 | H | targeted most strongly |  |  |  | 
Ac-AKGIQEVKGGKDAQNLIGISI-NH2 [PRE 5] | M | 0.2 | 0 | 4.31 | L |  |  |  |  | 
Ac-ISIGILNQADK-NH2 [PRE 10] | H/L |  |  |  | — |  | 9.47 |  |  | 
Ac-ISIGILQNADK-NH2 [PRE 7] | L |  |  |  | — |  |  |  |  | 
Ac-KDANQLIGISI-NH2 [PRE 6] | H/L |  |  |  | L |  |  |  |  | 
Ac-KDAQNLI-NH2 [PRE 12] | — |  |  |  | L |  |  |  |  | 
Ac-KDAQNLIGISI-NH2 [PRE 4, Ac-KDAQNLIGISI-NH2] | H | 29.2 | 30.7 | 17.3 | H | targeted most strongly; also recorded: showed an affinity for PKC-6 |  | strong affinity for PKC-α |  | 
Ac-RDAQNLI-NH2 [PRE 13] | M/H |  |  |  | L |  |  |  |  | 
Ac-RDAQNLIGISI-NH2 [PRE 11] | H/L |  |  |  | H | targeted most strongly |  |  |  | 
Ac-isigilgnadk-NH2 [PRE 9] | M/L |  |  |  | L |  | 9.95 |  | 16.23 | 19.27
ILEDKGGDAQNLIGISI [PRE 8] | M/L |  |  |  | — |  |  |  |  | 
RRKKGGKDFVVKR [PRE 1] | H |  |  |  | H | targeted most strongly |  |  |  | 
